Source: patent US20030138894A1 (Human Genome Sciences, published 2003)
Positions of bridges follow the written chain, without caps; N, C: chain ends. No end group written: not given here.

B1: ACE-2 binding polypeptide NIFCFDWEPCHFG (peptide)
peptide: NIFCFDWEPCHFG
modifications: not fully specified (bridges); cysteine pairing not given here
B2: ACE-2 binding polypeptide FEICFDWEVCHEQ (peptide)
peptide: FEICFDWEVCHEQ
modifications: not fully specified (bridges); cysteine pairing not given here
B3: ACE-2 binding polypeptide LYECEWKQFGPVEMCLNF (peptide)
peptide: LYECEWKQFGPVEMCLNF
modifications: not fully specified (bridges); cysteine pairing not given here
B4: ACE-2 binding polypeptide AYLCDWILFDSFEMCLAP (peptide)
peptide: AYLCDWILFDSFEMCLAP
modifications: not fully specified (bridges); cysteine pairing not given here
B5: ACE-2 binding polypeptide GIFCFEWETCYQA (peptide)
peptide: GIFCFEWETCYQA
modifications: not fully specified (bridges); cysteine pairing not given here
B6: ACE-2 binding polypeptide HYNCHTNDCVVL (peptide)
peptide: HYNCHTNDCVVL
modifications: not fully specified (bridges); cysteine pairing not given here
B7: ACE-2 binding polypeptide HLRCMTSDCIHF (peptide)
peptide: HLRCMTSDCIHF
modifications: not fully specified (bridges); cysteine pairing not given here
B8: ACE-2 binding polypeptide YAMCFDWDECFLG (peptide)
peptide: YAMCFDWDECFLG
modifications: not fully specified (bridges); cysteine pairing not given here
B9: ACE-2 binding polypeptide NRECHALFCMDF (peptide)
peptide: NRECHALFCMDF
modifications: disulfide 4-9 (inferred); not fully specified (N-terminus, C-terminus)
B10: ACE-2 binding polypeptide VYFCFDWEQDCDEM (peptide)
peptide: VYFCFDWEQDCDEM
modifications: not fully specified (N-terminus, C-terminus, bridges); cysteine pairing not given here
B11: ACE-2 binding polypeptide RIGCRDSRCNWWAPG (peptide)
peptide: RIGCRDSRCNWWAPG
modifications: not fully specified (N-terminus, C-terminus, bridges); cysteine pairing not given here
B12: ACE-2 binding polypeptide SGECNWQQFSGWEICLRD (peptide)
peptide: SGECNWQQFSGWEICLRD
modifications: not fully specified (bridges); cysteine pairing not given here
B13: ACE-2 binding polypeptide FQLCFDWEEECEES (peptide)
peptide: FQLCFDWEEECEES
modifications: not fully specified (bridges); cysteine pairing not given here
B14: ACE-2 binding polypeptide RGWCLDSRCKVF (peptide)
peptide: RGWCLDSRCKVF
modifications: not fully specified (bridges); cysteine pairing not given here
B15: ACE-2 binding polypeptide FNPCRLQSRDSACRFR (peptide)
peptide: FNPCRLQSRDSACRFR
modifications: not fully specified (bridges); cysteine pairing not given here
B16: ACE-2 binding polypeptide DYLCFDWEACWLS (peptide)
peptide: DYLCFDWEACWLS
modifications: not fully specified (bridges); cysteine pairing not given here
B17: ACE-2 binding polypeptide WAVCFDWEN-CGDK (peptide)
peptide: WAVCFDWENCGDK
modifications: not fully specified (bridges); printed as W A V C F D W E N - C G D K; cysteine pairing not given here
notes: one position printed as '-'
B18: ACE-2 binding polypeptide IGFCFEWEVCYEG (peptide)
peptide: IGFCFEWEVCYEG
modifications: not fully specified (bridges); cysteine pairing not given here
B19: ACE-2 binding polypeptide SPTCRALFCVDF (peptide)
peptide: SPTCRALFCVDF
modifications: not fully specified (N-terminus, C-terminus, bridges); cysteine pairing not given here
B20: ACE-2 binding polypeptide VGFCFDWEPCDEL (peptide)
peptide: VGFCFDWEPCDEL
modifications: not fully specified (bridges); cysteine pairing not given here
B21: ACE-2 binding polypeptide WQFCFDWDLNCDLR (peptide)
peptide: WQFCFDWDLNCDLR
modifications: not fully specified (bridges); cysteine pairing not given here
B22: ACE-2 binding polypeptide YEYCFEWEQCWEK (peptide)
peptide: YEYCFEWEQCWEK
modifications: not fully specified (bridges); cysteine pairing not given here
B23: ACE-2 binding polypeptide FFPCRALEKDSRCSFF (peptide)
peptide: FFPCRALEKDSRCSFF
modifications: not fully specified (bridges); cysteine pairing not given here
B24: ACE-2 binding polypeptide HSECRWEWFGRTMICMSF (peptide)
peptide: HSECRWEWFGRTMICMSF
modifications: not fully specified (bridges); cysteine pairing not given here
B25: ACE-2 binding polypeptide RGHCRDSRCMMNAPG (peptide)
peptide: RGHCRDSRCMMNAPG
modifications: not fully specified (bridges); cysteine pairing not given here
B26: ACE-2 binding polypeptide YDWCFDWEQCWDQ (peptide)
peptide: YDWCFDWEQCWDQ
modifications: not fully specified (bridges); cysteine pairing not given here
B27: ACE-2 binding polypeptide YQFCFDWETTCWLD (peptide)
peptide: YQFCFDWETTCWLD
modifications: not fully specified (bridges); cysteine pairing not given here
B28: ACE-2 binding polypeptide HFSCRLPSLDSRCQLW (peptide)
peptide: HFSCRLPSLDSRCQLW
modifications: not fully specified (bridges); cysteine pairing not given here
B29: ACE-2 binding polypeptide NDVCLNDDCVYG (peptide)
peptide: NDVCLNDDCVYG
modifications: not fully specified (bridges); cysteine pairing not given here
B30: ACE-2 binding polypeptide MDFCFDWEECWTN (peptide)
peptide: MDFCFDWEECWTN
modifications: not fully specified (bridges); cysteine pairing not given here
B31: ACE-2 binding polypeptide WVLCFEWEDCDEK (peptide)
peptide: WVLCFEWEDCDEK
modifications: not fully specified (N-terminus, C-terminus, bridges); cysteine pairing not given here
B32: ACE-2 binding polypeptide PFECDWGPWTLEMLCGPP (peptide)
peptide: PFECDWGPWTLEMLCGPP
modifications: not fully specified (N-terminus, C-terminus, bridges); cysteine pairing not given here
B33: ACE-2 binding polypeptide SIYCFDWEDCWDE (peptide)
peptide: SIYCFDWEDCWDE
modifications: not fully specified (bridges); cysteine pairing not given here
B34: ACE-2 binding polypeptide WPTCLTMDCVYN (peptide)
peptide: WPTCLTMDCVYN
modifications: not fully specified (N-terminus, C-terminus, bridges); cysteine pairing not given here
B35: ACE-2 binding polypeptide RGFCRDSSCSFP (peptide)
peptide: RGFCRDSSCSFP
modifications: not fully specified (N-terminus, C-terminus, bridges); cysteine pairing not given here
B36: ACE-2 binding polypeptide SENCQALFCVDF (peptide)
peptide: SENCQALFCVDF
modifications: not fully specified (bridges); cysteine pairing not given here
B37: ACE-2 binding polypeptide FLFCRLASRDSRCASP (peptide)
peptide: FLFCRLASRDSRCASP
modifications: not fully specified (bridges); cysteine pairing not given here

The binders below were run against T1, FLAG-tagged ACE-2 target (human, UniProt Q9BYF1 18-740) (assay: phage ELISA on FLAG-ACE-2).
T1 construct: range 1-740; obtained from Human Genome Sciences, Inc; also called FLAG-ACE-2; tagged human ACE-2; not shown: FLAG tag
T1 sequence (Q9BYF1 18-740 limits assumed): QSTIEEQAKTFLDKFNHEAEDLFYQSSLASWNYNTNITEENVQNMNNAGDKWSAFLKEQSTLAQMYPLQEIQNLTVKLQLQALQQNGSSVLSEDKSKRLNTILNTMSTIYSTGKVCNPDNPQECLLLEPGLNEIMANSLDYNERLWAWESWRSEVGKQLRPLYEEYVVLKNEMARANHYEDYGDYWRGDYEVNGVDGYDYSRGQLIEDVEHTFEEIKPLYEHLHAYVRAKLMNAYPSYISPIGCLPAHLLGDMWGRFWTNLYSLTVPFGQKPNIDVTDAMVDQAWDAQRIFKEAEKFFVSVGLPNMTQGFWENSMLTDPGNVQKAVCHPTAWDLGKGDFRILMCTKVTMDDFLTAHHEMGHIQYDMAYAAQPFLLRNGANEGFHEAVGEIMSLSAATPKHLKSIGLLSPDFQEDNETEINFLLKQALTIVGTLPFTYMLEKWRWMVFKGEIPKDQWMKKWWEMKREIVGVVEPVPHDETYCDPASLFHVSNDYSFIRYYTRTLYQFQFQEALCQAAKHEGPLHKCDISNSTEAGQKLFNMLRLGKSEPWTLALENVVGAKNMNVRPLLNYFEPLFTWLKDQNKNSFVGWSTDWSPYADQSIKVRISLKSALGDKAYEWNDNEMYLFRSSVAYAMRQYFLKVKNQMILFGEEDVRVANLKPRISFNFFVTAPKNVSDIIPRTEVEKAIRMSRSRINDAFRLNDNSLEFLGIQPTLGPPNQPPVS
Protocol: Phage enriched from the third round of selection were screened by ELISA for strong ACE-2 binders. Immulon 2 96-well plates (Dynatech) were coated with streptavidin for 1 hour at 37° C. and subsequently coated with anti-FLAG antibody for 1 hour at room temperature. Half of the plates were further coated with FLAG-ACE-2 as the target plates, and the other half of the plates were coated with FLAG peptide as background plates. The amount of each protein or peptide coated was 100 ng per well. The coated plates were then incubated for 1 hour at room temperature with 1:2 diluted overnight phage cultures that were made by inoculating phage from individual plaques into bacterial host cells. After being washed 7 times with PBST, the plates were incubated with HRP-conjugated anti-M13 antibody (Pharmacia) for 1 hour at room temperature, washed 5 times, developed with TMB peroxidase substrate solution (Kirkegaad & Perry Laboratories, Gaithersburg, Md.), and read at 630 nm on an ELISA plate reader.

Binding result, binds:
B1
B2
B3
B4
B5
B6
B7
B8
B9
B10
B11
B12
B13
B14
B15
B16
B17
B18
B19
B20
B21
B22
B23
B24
B25
B26
B27
B28
B29
B30
B31
B32
B33
B34
B35
B36
B37
